From a protein production outcome set (Wang et al. 2014)

Assay: label from the status in PepcDB records

| Sequence | protein production |
| --- | --- |
| MGFYGGGSMASGRPESTGIDSLGIGKILAVYIKDNENLAIDEDKLQLTAELIRVFSASPGRDIVSQVNEDGGGSFSLSLDLQQFKKISDIENFFINLEDNPKGVIPCMNAAVHKVLFDQWETNEFENVMKINVRLHNYPESSISLKNLRAAYIGKLVTVHGTVVKVSTVKPLVTQMAFDCGKCKTGITREFTDGKFSPPLKCDSHGCKSKTFTPIRSSAQTIDFQKIRVQELQKPEDHEEGRVPRTVECELMEDLVDICIPGDVVTVTGIIGVINNYMDIGGGKSKTKNQGFYYLFIEAVSVKNTKRQSAFENSEDSSSSAQTADVGDLYSFSQRDLEFIVKFKEEYGSDTFRRILHSVCPSIYGHEIVKAGITLSLFGGVRKHSMDRNKVPVRGDIHVIIVGDPGLGKSQLLQAAAAISPRGIYVCGNATTRAGLTVAVVKDSMTNDYAFEAGAMVLADGGLCCIDEFDKMTTEHQALLEAMEQQCVSVAKAGLVASLSARTSVIAAANPVGGHYNRAKTVNENLKMSAALLSRFDLVFILLDKPDELLDKQVSEHIMSHHRMLGMQTCMQKGILYFQDCGWTLRKMTTFLRFLANCLGNIFPMHGILMSKDAGEIIQKFYLKLRDHNTSADSTPITARQLESLVRLAQARARVDLREEITVQDAMDVVEIMKESLYDKLIDEHGVVDFGRSGGMSQQKEAKRFLSALDKQSELQQKDCFSVSEMYSLADRIGLRVPDIDTFLENLNIAGYLLKKGPKTYQVLSSSYSRSQSSRSR | failed |
| MSSSSSKIVVYAALVGNLLIALSKFIAAYFTNSAAMLSEAIHSVVDSLNEILLLYGLKKSQKPANYRHPFGYGRELYFWAFIVALLVFALGAVVSIYQGVSHILQPEEMKYPLVNYLVLGFAILCEGASWWVAVKNFKKMKGSLGYFEAFKRSKDPTTFTVLFEDSAALIGLIIALIGITAAQFLQIPILDGVASVLIGVVLAVSAFLLARETKGLLLGETADPELRKNVLRIAQDDEAVYSANGVLTEQIGAHQVIASLSLEFKDGLISDEIENCVNRIEAQIKQIHPEIVALFIKPQSNEVWLERMKGRLNQQNGEIVAAKVK | failed |
| STGNGWFAGFPIFSWYFGRDGLWMGLAANTVGMSHLTREHMRTLLIYSKDGRIPHEIGLSNDGMQSYSISDRIFNTMYMSIDSSLLWLLSNKSLENWESKGFEHDNVTRVFKFASSCDSDGDGLLENNFSDGLIGWPETWANIRNGKAVDINALWVKTVELYSNELNIANAEELKKKYLESFFSNVSFTDFIDNSGYAKSVKSAMQFVPGIFFTNNNIVETIKQLAEGNLTPWGVRSVSVDDPMFDGGYHTGTVWPLMTGWFVLSAYKNGLKDIAFKQLMTFSELAFSSPDLGRINETYDSMIANPTGQFAQGWSSSMLVLSVMQGLLGIDSIEF | failed |
| MRYLFSLLFLLAYGSTVAQQPPMLPRDAAIEAKIEKLLEQMSLDEKIGQMVELEIGMITYRDPRYVVEKLARMSEQELADTLRRFGLDKQHNAAQLALTTPEDKQNKEKLMRLYWVSNDIQSKLPFRLDEAALDSVVGKYKVGSILNAPQTTAQTPAMWNQVVKTIQDVSIKHLGIPTVYGLDQMHGTTYSTGGTLFPGAINMAATFNRDLVYKMGEIVAYETRACNVPWIYGPCIDLGRMQAWSRQYESFGEDVFLSSEMGAAALRGMQGDNPNHIDAYHVAGCLKHYFAYGAPYNGLDRSPARLSYEELREKQFAPFLRGIREGALSIMTNSSNVNGVKGTVNREFITGWLKEGLGWDGMVVTDWGDIDGAVTSDRVVPTAKEAIRLAINAGVDMMMVPSQFTYNGLLKELVEEGGVSMERIDDAVRRILRLKHRVGLFEQPNTFAKDYPKFGSEEFAAYSRQAALESIVLLKNDSVDSQSRLLPIKQGTRLLVCGPNANSMRTLNGGWSYTWQGDGADREEFTGHFNTIYEALRNKFGSNHVTLVEGVSYDSKRWAMDHADNIGDAVAAAADNDYVIVCIGENTYAETRGNIADINLSTNQKNLVKALAATGKPIILVLNESRGRAISDIEPLAKAVVHTMLPGNYGGDALAELLAGNENFSGRLPYTYSAQPNAMVNYDYKASEVRETISGVYDYNAKTYEQWWFGAGMSYTTYTYSNLRADKNSFTKDDVLTFTVDVKNTGAMAGKETVMLYASDLYASLMPDNRRLRGFEKIVLAPDESKTVTFRIKASDLAFMGTGKKWTLEAGEFNIACGDQSVSIHCTEDYTWEEENIPDN | failed |
| MGHHHHHHSHMPDHGDWTYEEQFKQLYELDGDPKRKEFLDDLFSFMQKRGTPVNRIPIMAKQVLDLFMLYVLVTEKGGLVEVINKKLWREITKGLNLPTSITSAAFTLRTQYMKYLYPYECEKRGLSNPNELQAAIDSNRREGRR | not failed |
| MSRILVLAVVALALLNPLFLVVHSLPTGVSAHDGPIYTNAVLGYANITSLQAYNSSFNVPYGASLQLNVVLEATSTNGNTYYFWLQNVAQFVTNESLMCFTDNVWNYTTATAEISNVTGNGGIGFTYNILFGHPTFYGYSTEPMPYRFPLALYLLINESLSSNGVIVNFIYVVLQNGSLVPPHPVTYDSVFIPVPDPQSAYIIVNDSLTPSAVVLNFTLFYQEALGNLMDTELVWGGYENGEFTTFTQMSSYLGLFYLSGNSFVPFSTVYTYGNDTAESTGDLYVSIASNGDAYVTVGTPDYGLLTDSFHPYIPGFTFVNVTSKVPFLVNGTYTNSFVGYVVHPVTITFYRNYTVNSSSYAVLDYPSQSLTITPSNTFKNVIITPQYTYYYKVIVNSSRPLLLNISGKETLTNGTLWLPQGTSVSLVNNTYYVSSGERFVVNNTYPNLPLTVENPTTITVTLEKQFKLTINSPIPLLLSINGKSRLFNGTTWVLQGSAVELVNNTYYVSSGERYVVSSISPSTPIEVSGPMNISVELVKEYKVEIVSSQPVMATIKGETEPVNGTAWLPQGSVIHLTANLPVYLKGYFVGTYNASPGEQVTINGPIYEKLVVQLNYTFLEELVIPIVTAVVIVVAITRRR | failed |
| MKVKKYDQFNESCYQAQLDNGLTVTLLPKAGYHKTYATFTTNYGSIDNTFVPAGSTEMQRFPDGIAHFLEHKMFEKADHDAFQIFGQYGASANAFTSFTKTSYLFSATRHLQDNLMTLLDFVQDPYFTPATVDKEKGIIGQEIEMYDDDPSWRLYFGMIGNLYPNHPLQYDIAGTTESIAKITADDLYAAYRTFYHPENMTLFVVGNFDPDEVLGWITTNQATKKFAAFQPIERKIPETATDGHDIIPYRTIDMPVNRAKSIVGVKGLLPIEAGAAALKYRAAVNVLLELLFGDTSADYLRLYDQGIIDDTFGYDFELQSGFNFVTFSGETDDPAQFDAAIIDVLENWRTAVVGQEAALALVKKEMIGRVVFMANSLEAIANRYDQRLFGTATIFDEPGIIDQLTLADLQTVAEQLLTSQAISEYQIRPQAKS | failed |
| MNKVLINDTTLRDGEQAAGVVFTLEEKVAIAKFLDTIGVPELEVGIPAMGEEEMRAICAISNLGLKANLLAWNRAVISDIKASVACGMERVHIAIPVSGIQIAAKFHGQWRVSLQRLKDCISFAVDQGLWVAVGGEDSSRADENFLLDVALYAQEWGASRFRFCDTVGVLDPFTTYGKVKLLVSALTIPVEVHTHNDFGMATANALAGIKAGASSVNTTVIGLGERAGNAALEEVVMAIKRIYGVDMGIDTPRLLELSQLVAAASGANVPPWKAIVGENTFAHESGIHAHGVLQNPDTYEPFAPEEVGWERRLVVGKHSGRHSVSNLLEQHGIFLNPEETQSVLDAVRQQSIKKKRSLTTEELLNLVKEQRYSHAAR | failed |
| MGSGWGPLEPWDRLAQPRPATGRLAAPPHCPPALPLHSAAPGSRTGTGAMERTAGKELALAPLQDWGEETEDGAVYSVSLRRQRSQRSTPEGSGDGQTPIPAMDTFLQYRTSKVRALRAARLERLVHELVSGDREQDPGFVPAFLATHRAFVPTARVLGFLLPPPPPPPPPPAGVDSKRTEGQDLNFSKNLRAVVSVLGSWLRDHPQDFRDPPDHQNLGDVRIFLGWAAPGGAEVREAEKLLEDFLKEAKEEQTEGEQRLAWAGPPWAAQSPRSEFAEDYSEEEGLRSEGPELLDFSVDEVAEQLTLMDVELFLRVRSCECLGSMWSQRDRPGAAGISPTVRATVAQFNAVTGCVLGSVLAAPGLAASQRAQRIEKWIRIAQRCRELRNFSSLRAILSALQSNPIYRLKRSWGAVSREPLSVFRKLSQIFSDEDNHLSSRAILSQEETTEGPQGDDCSPGSLPSKLPPGPVPYLGTFLTDLVMLDTALPDMLKGNLINFEKRRKEWEILARIQQLQHRCQHYSLSPRPPILAALRAQRQLSEEQSYRVSRVIEPPAASCPSSPRIRRRISLTKRLSAKLSREKNQSPGGSPGDPPSPTSSVSPGSPPASPRSQDPPPGSPPASPGPQSPSTKLSLSMEPPGPWPMTLTPSSSRTPLLGQQTSEARVIRVSINNNHGNLYRSILLTCQDKAPSVVQRALEKHNVPQPWARDYQLLQVLPGDRELLIPDSANVFYAMNPAAPGDFLLRRKEGTGHTPSASPS | failed |
| MRDFLVRYFPTFMLTVLLGCFSASLLLSLAGTTYWRAMAPPQRDEYLLFGLLVLIPLLVLGNLLIVRGISRAVWLVAGYFVACLLGVVPMFQYHPHQGVYLFGVLLPLLGLLLLNSKRHREMRERLLQIRQQRQRFKQQRKRG | failed |
| QLSSVTDSKKKKTILDQIFVWEQNLEQFQMDLFRFRCYLASLQGGELPNPKRLLAFASRPTKVAMGRLGIFSVSSFHALVAARTGETGVRRRTQAM | failed |
| MPIAGIPYTEIVMAIVAFVLGFLVGYLIKNVIKIGIIVLAIIVILIAIGVVSPHTVVSGLQSMGVYATQAEQYVSRIINYLPYNSILFIIGFVIGLVKG | failed |
| MESQLTLITLTLVIATIFGVALSRFRISPIPAYLIAGLLGKSFGLDYSSDLFNFLSTLAINLVSFNVGISLDIRELKNILSKATIIAITEYIVGFTIISIISLIIGLPFYDTFILTIISVTTSTTITYKLIQNKIDDKQSGLILAVLSLEDVITFIALGVILSSNSNIVEIIPTSLASLGLGYLVSRTIINRSINTSEESVIISSIASVLSFSLLGQIFDIPSTLANFLLGLGASYALKDTKKVSRILSPLIDFSLIFFFFSAGSYLNLSLSSLYVLVPISLIMTLVKYLSFSTSYWLTGSNFLVAFRSGIYMTSLSELGIIVALNAFQQGIITSLVYNLSAFLVMMSSTITSITVPRERRIIGLISKTYEKLRIDRIDGALQRITRVVKLNRNTTSNFILRFILIGLITIFSASYLLIFLVSFARFFIYIAPLISVLVPFLLALLVIEETRRLSNLGQKRINEIILWIIYVFITINFEIFIVRIISELNYYVIYLGILVSIIVIVIMYQRLNTFIKELDKSL | failed |
| SLGAMFRAGTPMPPNLNSQGGGHYFIDRDGKAFRHILNFLRLGRLDLPRGYGETALLRAEADFYQIRPLLDALRELEASQGTPAPTAALLHADVDVSPRLVHFSARRGPHHYELSSVQVDTFRANLFCTDSECLGALRARFGVASGDRAEGSPHFHLEWAPRPVELPEVEYGRLGLQPLWTGGPGERREVVGTPSFLEEVLRVALEHGFRLDSVFPDPEDLLNSRSLRFVRH | not failed |
| MKNKIKFATIIHPDVSFFNKQEVGEGTIIYPGLIVVGRFKLGKHVILKQKCSLGNNIEIGDYSFISFNSNIDSNVMVKEGSYIEANTTILANSNIDKNTYIKEGSILYLEHHHHHH | failed |
| MVDIVCWAVKNGSAGRNLLLIANASSEDDQFWPFLQGLRYRGFKLFATIPDRTLPDDECLTAGIEDTGSDD | failed |
